Publication PMC8266384, “A two-site flexible clamp mechanism for RET-GDNF-GFRα1 assembly reveals both conformational adaptation and strict geometric spacing” (Structure(London, England:1993), 2021)
“And” between values parts separate entries of the source, which are not always exact repeats. Equal values may be shown once.

How the values were obtained:
[1] = target: zRET^ECD-zGDNF^mat.-zGFRα1a^D1-3 ternary complex (zRGα1a), 2:2:2 (zebrafish) (UniProt A8E7C6); assay: cryo-EM micrographs, particle-pair analysis and 2D class averages; non-crosslinked zRGα1a at 0.1 mg/ml on Quantifoil grids (dataset 3); complex with complex in linear arrays
[2] = target: T1, zebrafish RET extracellular domain (zRET^ECD), A8E7C6; assay: MST; conditions: chain shown with the change
T1 chain: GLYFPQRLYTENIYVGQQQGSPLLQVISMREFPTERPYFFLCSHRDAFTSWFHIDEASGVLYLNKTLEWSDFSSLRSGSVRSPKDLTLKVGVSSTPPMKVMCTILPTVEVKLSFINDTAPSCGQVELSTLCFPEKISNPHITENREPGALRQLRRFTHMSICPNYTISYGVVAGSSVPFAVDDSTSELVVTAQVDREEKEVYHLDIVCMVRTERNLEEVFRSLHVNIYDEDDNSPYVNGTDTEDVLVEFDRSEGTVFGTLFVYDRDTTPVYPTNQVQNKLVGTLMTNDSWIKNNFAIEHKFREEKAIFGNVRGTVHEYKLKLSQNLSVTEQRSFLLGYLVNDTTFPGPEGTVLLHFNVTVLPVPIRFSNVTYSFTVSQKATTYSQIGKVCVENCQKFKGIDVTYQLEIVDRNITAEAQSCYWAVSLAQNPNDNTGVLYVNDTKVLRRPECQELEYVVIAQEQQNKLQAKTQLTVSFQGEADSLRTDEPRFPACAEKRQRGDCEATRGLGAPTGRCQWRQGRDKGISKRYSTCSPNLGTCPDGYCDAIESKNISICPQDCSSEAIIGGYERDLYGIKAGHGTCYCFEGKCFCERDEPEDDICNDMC

[3] = target: zebrafish RET extracellular domain (zRET^ECD) (zebrafish) (UniProt A8E7C6); assay: MST; zRET^ECD labelled with NHS-RED (50 nM fluorophore) held constant, unlabelled zGFRα1^D1-3-zGDNF^mat. (WT and mutants) in 1:1 serial dilution; 25°C; 20 mM HEPES pH 7.0, 150 mM NaCl, 1 mM CaCl2, 0.05 % Tween-20; quadratic fit, at least three repeats
[4] = target: the molecule itself; assay: cryo-EM structure; reconstituted zRGα1a complex crosslinked by GraFix (glutaraldehyde), 0.1 mg/ml; 20 mM Tris pH 7.0, 150 mM NaCl, 1 mM CaCl2; untilted and 30° tilted datasets
[5] = target: zRET^ECD with the CLD3-β2-β3 loop truncated to AAG (zRET^ECD_(P291-Q296:AAG)) (zebrafish) (UniProt A8E7C6); assay: MST; zRET^ECD labelled with NHS-RED (50 nM fluorophore) held constant, unlabelled zGFRα1^D1-3-zGDNF^mat. (WT and mutants) in 1:1 serial dilution; 25°C; 20 mM HEPES pH 7.0, 150 mM NaCl, 1 mM CaCl2, 0.05 % Tween-20; quadratic fit, at least three repeats
[6] = target: T2, zGDNF^mat._(Y158A)-zGFRα1a^D1−3WT complex (zebrafish, UniProt Q98TT9 1-353; Q98TU0 135-235, Y158A); assay: MST
T2 sequence 1: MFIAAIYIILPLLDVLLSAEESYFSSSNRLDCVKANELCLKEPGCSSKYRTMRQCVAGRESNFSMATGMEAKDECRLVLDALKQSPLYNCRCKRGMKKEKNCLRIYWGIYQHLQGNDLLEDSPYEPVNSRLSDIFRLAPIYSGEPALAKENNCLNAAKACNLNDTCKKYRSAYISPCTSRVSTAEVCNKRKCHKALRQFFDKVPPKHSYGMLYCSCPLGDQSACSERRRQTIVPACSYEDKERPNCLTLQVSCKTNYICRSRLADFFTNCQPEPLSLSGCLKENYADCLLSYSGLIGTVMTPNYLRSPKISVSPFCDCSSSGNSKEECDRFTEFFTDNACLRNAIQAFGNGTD
T2 sequence 2: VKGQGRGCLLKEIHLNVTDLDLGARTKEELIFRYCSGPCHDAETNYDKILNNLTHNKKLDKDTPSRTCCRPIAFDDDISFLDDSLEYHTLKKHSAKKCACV

Molecule: zRET^ECD-zGDNF^mat.-zGFRα1a^D1-3 ternary complex (zRGα1a), 2:2:2 (from UniProt A8E7C6 1-626; Q98TT9 1-353; Q98TU0 135-235)
- stoichiometry N [1]: 2 and 4

B1: zGDNF^mat.-zGFRα1a^D1-3 complex (2:2), wild type, Q98TT9;Q98TU0 N323A (protein)
chain 1: MFIAAIYIILPLLDVLLSAEESYFSSSNRLDCVKANELCLKEPGCSSKYRTMRQCVAGRESNFSMATGMEAKDECRLVLDALKQSPLYNCRCKRGMKKEKNCLRIYWGIYQHLQGNDLLEDSPYEPVNSRLSDIFRLAPIYSGEPALAKENNCLNAAKACNLNDTCKKYRSAYISPCTSRVSTAEVCNKRKCHKALRQFFDKVPPKHSYGMLYCSCPLGDQSACSERRRQTIVPACSYEDKERPNCLTLQVSCKTNYICRSRLADFFTNCQPEPLSLSGCLKENYADCLLSYSGLIGTVMTPNYLRSPKISVSPFCDCSSSGASKEECDRFTEFFTDNACLRNAIQAFGNGTD
chain 2: VKGQGRGCLLKEIHLNVTDLDLGYRTKEELIFRYCSGPCHDAETNYDKILNNLTHNKKLDKDTPSRTCCRPIAFDDDISFLDDSLEYHTLKKHSAKKCACV
- Kd ([2]; fluorescently labeled zRETECD, minimum of n = 3 repeats): 88 nM

B2: zGDNFwt-zGFR1α1a^D1−3_(N323A,E326A,E327A) complex (complex)
chain 1: MFIAAIYIILPLLDVLLSAEESYFSSSNRLDCVKANELCLKEPGCSSKYRTMRQCVAGRESNFSMATGMEAKDECRLVLDALKQSPLYNCRCKRGMKKEKNCLRIYWGIYQHLQGNDLLEDSPYEPVNSRLSDIFRLAPIYSGEPALAKENNCLNAAKACNLNDTCKKYRSAYISPCTSRVSTAEVCNKRKCHKALRQFFDKVPPKHSYGMLYCSCPLGDQSACSERRRQTIVPACSYEDKERPNCLTLQVSCKTNYICRSRLADFFTNCQPEPLSLSGCLKENYADCLLSYSGLIGTVMTPNYLRSPKISVSPFCDCSSSGASKAACDRFTEFFTDNACLRNAIQAFGNGTD
chain 2: VKGQGRGCLLKEIHLNVTDLDLGYRTKEELIFRYCSGPCHDAETNYDKILNNLTHNKKLDKDTPSRTCCRPIAFDDDISFLDDSLEYHTLKKHSAKKCACV
- Kd [3]: 2350 nM

B3: zGDNF^mat._(Y158A)-zGFRα1a^D1−3WT complex (complex)
chain 1: MFIAAIYIILPLLDVLLSAEESYFSSSNRLDCVKANELCLKEPGCSSKYRTMRQCVAGRESNFSMATGMEAKDECRLVLDALKQSPLYNCRCKRGMKKEKNCLRIYWGIYQHLQGNDLLEDSPYEPVNSRLSDIFRLAPIYSGEPALAKENNCLNAAKACNLNDTCKKYRSAYISPCTSRVSTAEVCNKRKCHKALRQFFDKVPPKHSYGMLYCSCPLGDQSACSERRRQTIVPACSYEDKERPNCLTLQVSCKTNYICRSRLADFFTNCQPEPLSLSGCLKENYADCLLSYSGLIGTVMTPNYLRSPKISVSPFCDCSSSGNSKEECDRFTEFFTDNACLRNAIQAFGNGTD
chain 2: VKGQGRGCLLKEIHLNVTDLDLGARTKEELIFRYCSGPCHDAETNYDKILNNLTHNKKLDKDTPSRTCCRPIAFDDDISFLDDSLEYHTLKKHSAKKCACV
- fold decrease in affinity against the wild type [3]: 2 fold

B4: zGDNF^mat.-zGFRα1a^D1-3 complex (2:2), wild type, Q98TT9;Q98TU0 L156A (protein)
chain 1: MFIAAIYIILPLLDVLLSAEESYFSSSNRLDCVKANELCLKEPGCSSKYRTMRQCVAGRESNFSMATGMEAKDECRLVLDALKQSPLYNCRCKRGMKKEKNCLRIYWGIYQHLQGNDLLEDSPYEPVNSRLSDIFRLAPIYSGEPALAKENNCLNAAKACNLNDTCKKYRSAYISPCTSRVSTAEVCNKRKCHKALRQFFDKVPPKHSYGMLYCSCPLGDQSACSERRRQTIVPACSYEDKERPNCLTLQVSCKTNYICRSRLADFFTNCQPEPLSLSGCLKENYADCLLSYSGLIGTVMTPNYLRSPKISVSPFCDCSSSGNSKEECDRFTEFFTDNACLRNAIQAFGNGTD
chain 2: VKGQGRGCLLKEIHLNVTDLDAGYRTKEELIFRYCSGPCHDAETNYDKILNNLTHNKKLDKDTPSRTCCRPIAFDDDISFLDDSLEYHTLKKHSAKKCACV
- Kd [2]: 88 nM

B5: zebrafish GDNF, N-terminally truncated (zGDNF^mat.) (ligand, UniProt Q98TU0 135-235, looked up)
chain: VKGQGRGCLLKEIHLNVTDLDLGYRTKEELIFRYCSGPCHDAETNYDKILNNLTHNKKLDKDTPSRTCCRPIAFDDDISFLDDSLEYHTLKKHSAKKCACV
notes: One protomer; it stands as a dimer in the complexes; also called GDNF1; not shown: Protein A, C-terminal, cleaved
- stoichiometry N [4]: 2

B6: zGDNF^mat.-zGFRα1a^D1-3 complex (2:2), wild type (complex)
chain 1: MFIAAIYIILPLLDVLLSAEESYFSSSNRLDCVKANELCLKEPGCSSKYRTMRQCVAGRESNFSMATGMEAKDECRLVLDALKQSPLYNCRCKRGMKKEKNCLRIYWGIYQHLQGNDLLEDSPYEPVNSRLSDIFRLAPIYSGEPALAKENNCLNAAKACNLNDTCKKYRSAYISPCTSRVSTAEVCNKRKCHKALRQFFDKVPPKHSYGMLYCSCPLGDQSACSERRRQTIVPACSYEDKERPNCLTLQVSCKTNYICRSRLADFFTNCQPEPLSLSGCLKENYADCLLSYSGLIGTVMTPNYLRSPKISVSPFCDCSSSGNSKEECDRFTEFFTDNACLRNAIQAFGNGTD
chain 2: VKGQGRGCLLKEIHLNVTDLDLGYRTKEELIFRYCSGPCHDAETNYDKILNNLTHNKKLDKDTPSRTCCRPIAFDDDISFLDDSLEYHTLKKHSAKKCACV
- Kd [5]: 18 nM
- Kd [3]: 90 nM

B7: zGDNF^mat.WT-zGFR1α1a^D1−3_(E326A,E327A) complex (complex)
chain 1: MFIAAIYIILPLLDVLLSAEESYFSSSNRLDCVKANELCLKEPGCSSKYRTMRQCVAGRESNFSMATGMEAKDECRLVLDALKQSPLYNCRCKRGMKKEKNCLRIYWGIYQHLQGNDLLEDSPYEPVNSRLSDIFRLAPIYSGEPALAKENNCLNAAKACNLNDTCKKYRSAYISPCTSRVSTAEVCNKRKCHKALRQFFDKVPPKHSYGMLYCSCPLGDQSACSERRRQTIVPACSYEDKERPNCLTLQVSCKTNYICRSRLADFFTNCQPEPLSLSGCLKENYADCLLSYSGLIGTVMTPNYLRSPKISVSPFCDCSSSGNSKAACDRFTEFFTDNACLRNAIQAFGNGTD
chain 2: VKGQGRGCLLKEIHLNVTDLDLGYRTKEELIFRYCSGPCHDAETNYDKILNNLTHNKKLDKDTPSRTCCRPIAFDDDISFLDDSLEYHTLKKHSAKKCACV
- Kd [3]: 170 nM

B8: zebrafish RET extracellular domain (zRET^ECD) (domain or fragment)
chain: GLYFPQRLYTENIYVGQQQGSPLLQVISMREFPTERPYFFLCSHRDAFTSWFHIDEASGVLYLNKTLEWSDFSSLRSGSVRSPKDLTLKVGVSSTPPMKVMCTILPTVEVKLSFINDTAPSCGQVELSTLCFPEKISNPHITENREPGALRQLRRFTHMSICPNYTISYGVVAGSSVPFAVDDSTSELVVTAQVDREEKEVYHLDIVCMVRTERNLEEVFRSLHVNIYDEDDNSPYVNGTDTEDVLVEFDRSEGTVFGTLFVYDRDTTPVYPTNQVQNKLVGTLMTNDSWIKNNFAIEHKFREEKAIFGNVRGTVHEYKLKLSQNLSVTEQRSFLLGYLVNDTTFPGPEGTVLLHFNVTVLPVPIRFSNVTYSFTVSQKATTYSQIGKVCVENCQKFKGIDVTYQLEIVDRNITAEAQSCYWAVSLAQNPNDNTGVLYVNDTKVLRRPECQELEYVVIAQEQQNKLQAKTQLTVSFQGEADSLRTDEPRFPACAEKRQRGDCEATRGLGAPTGRCQWRQGRDKGISKRYSTCSPNLGTCPDGYCDAIESKNISICPQDCSSEAIIGGYERDLYGIKAGHGTCYCFEGKCFCERDEPEDDICNDMC
modifications: NHS-RED 2nd generation dye (amine reactive) in the MST only
- Kd [6]: 173 nM
